{"source": "patent US20250241939A1", "about": "“NUCLEIC ACID-BASED DELIVERY SYSTEMS AND USES THEREOF” (Kodikaz Therapeutic Solutions, Inc., priority 2022, published 2025)", "key": {"[1]": {"tested_on": "MM1s (multiple myeloma) cell genome", "assay": "ctDNA coculture with MM1s cells, whole genome sequencing: genomic insertion sites, transposons at insertion points and SNVs (multiple myeloma)", "type": "cell-based, human", "description": "(§1) The integration of ctDNAs into the host cell genome was evaluated. ctDNA was extracted from patient plasma, cultured for 24 hours with cells of a matching cancer cell type or non-matching cancer cell type, and whole genome sequencing was performed. The cell lines used were MM1s (multiple myeloma, MM) and MIA (pancreatic cancer, PC).\nSingle nucleotide variants (SNVs) unique to the ctDNA that were found in the host cell genome under matching coculture conditions were identified.\nThe sequence data was used to reconstruct genomic contigs for each experimental condition by de novo assembly. […] Coculture contigs carrying a ctDNA insertion were identified using NucDiff analysis. BLAST alignment analysis further validated the gain of ctDNA fragments in coculture conditions and identified the transition points of ctDNA insertion (FIGS. 3A-3C). […] The remaining 20% inserted into a chromosomal location distinct from their site of origin.\n(§2) Experiments were designed to identify the presence of transposons in ctDNA fragments. To map ctDNA genomic junctions more precisely, a PACBIO probe was ligated to multiple myeloma and pancreatic cancer ctDNA samples to label their 5′ and 3′ ends. Whole-genome sequencing of DNA from cells with ctDNA genomic integration was done using the Illumina platform. De novo assembly was performed on the sequencing output. ctDNA contigs containing PACBIO adaptor were then matched to those contigs containing inserted ctDNA sequences identified in the coculture experiments. Transposable element on ctDNA sequences at the insertion points (<100 nucleotides from transition point between cell and ctDNA) were detected and classified using RepeatMaster.\n(§3) A search was conducted for transposons that preferentially target cells of matching tumor types. The lists of transposons identified at the ctDNA insertion point in matching and mismatched coculture conditions were compared (e.g., MM ctDNA with MM cells or PC cells). Transposons were selected that were uniquely or preferentially inserted in the matching conditions.\nIn multiple myeloma, AluSp, MER11, MER11C, AluJb, and L2a, among other subfamilies of retrotransposons were identified at the MM ctDNA insertion sites (FIG. 5B and TABLE 7).\n(§4) Whole-genome sequencing and Whole exon sequencing: ctDNA was extracted from 10 MM and 10 PC patients. DNA from CD138 (+) cells and from cell lines used in in vitro experiments (MM1s and MIA) was extracted using Blood & Cell Culture DNA Mini Kit (Quiagen, MD). DNA from […] paraffin embedded pancreatic tumors was obtained using QIAamp DNA FFPE Tissue Kit Print (Qiagen, MD).\n(§5) After extraction, ctDNA was ligated to the PACBIO adaptor ([…]) using the ABM DNA Library Prep Kit for Illumina Sequencing (Applied Biological Materials Inc. Canada). PACBio-labeled ctDNA and regular ctDNA were subjected to standard methods for library preparation and sequencing using Illumina and Agilent protocols, respectively. Applied Biological Materials Inc. prepared the libraries and performed whole-exon and -genome sequencing. The average target coverage was 50×.\n(§6) Identification of transposable elements and its nucleotide variants: To determine the locations of transposable-like regions in contigs, sequences were analyzed and transposable elements (TEs) were identified and classified using RepeatMasker version 4.1.0 and the Dfam database (release 3.1) of repetitive DNA families was used as a reference for identifying repeats in ctDNA contig sequences that were part of qualifying structural events. For each repeat sequence identified by RepeatMasker, the overall frequency of the specific repeat (e.g., for AluSp or L1) and their parent class (e.g., SINE) was computed.\nOnce the TE elements were identified, hit repeats/TE sequences, unique contigs for all samples, and insertion sequence were aligned with MAFFT software version. […]"}, "[2]": {"tested_on": "MIA (pancreatic cancer) cell genome", "assay": "ctDNA coculture with MIA cells, whole genome sequencing: genomic insertion sites, transposons at insertion points and SNVs (pancreatic cancer)", "type": "cell-based, human", "details": "for Location: identified genomic insertion site, chromosome; for No. SNP: number of single nucleotide variants (SNVs or SNPs) identified, polynucleotides for pancreatic cancer cells; for Chr location: position on the chromosome of the identified genomic insertion site; for blast orientation: BLAST alignment orientation; for blast chr: chromosome with the longest result for BLAST analysis of the full contig; for Transposon orientation: compared with the human reference genome; for Location relative to insertion: location of the transposon relative to the insertion on the contig", "description": "as §1\nThe sequence data was used to reconstruct genomic contigs for each experimental condition by de novo assembly. […] Coculture contigs carrying a ctDNA insertion were identified using NucDiff analysis.\nas §2, §3, §4\nas §5, with “sequencing.” for “sequencing. The average target coverage was 50×.”\nas §6\nOnce the TE elements were identified, hit repeats/TE sequences, unique contigs for all samples, and insertion sequence were aligned with MAFFT software version. Mutations in TE sequences were identified by comparison of nucleotides at each position in the multiple sequence alignment with the “Biostrings” R package (version 4.1). A position was considered to contain mutation if the substitution was present in contigs of all samples."}, "[3]": {"details": "TABLE 8, pancreatic cancer co-culture"}}, "data": [{"molecule": "L1MB3", "values": [{"measurement": "blast orientation", "setting": "[1]; TABLE 7, multiple myeloma co-culture, BLAST alignment orientation", "result": "Plus/Plus"}, {"measurement": "blast chr", "setting": "[1]; TABLE 7, multiple myeloma co-culture, chromosome with the longest result for BLAST analysis of the full contig", "result": "chr2"}, {"measurement": "Distance from insertion", "setting": "[1]; TABLE 7, multiple myeloma co-culture, distance between insertion and the transposon (0 if they overlap)", "result": "−68"}, {"measurement": "Location relative to insertion", "setting": "[1]; TABLE 7, multiple myeloma co-culture, location of the transposon relative to the insertion on the contig", "result": "right"}]}, {"molecule": "60 (nucleic acid, listed as Homo sapiens) ATTCAGAAGACAAATCTCACATGCAAAGACACACATAGGCTCAAAATAAGTGGATGGAGGAATATTTACCAAGCAAATGGCAAGCAAAAAGAAAAAGCAGGGGTTGCAATCCTAGTATCTGATAAAACAGGCTTTAAACCAAGAAAGATCAAAAAAGACAAAGAAGGTCATTACATAATGGTAAAGGGATCAATGCAACAAGAAGAGCTAACTATCCTAAATATATACGCACCCAATACAGGAGCACCCAGATTCATAAAGTAAATTCTTAGAGACTACAAAGAGACTTATACTCCCATACAATAATAGTGGGAGATTTTAACACCTCATTGTTGATATTAGATCAATGAGACAGAAAATTAACAAGGATATTCAGGACTTGAACTCAGCACTGGACAAAGCAGATTTAATAGACATCTACAGAACTCTCTACCTCAGATCAACAGAATATACATTCTTCTCAGCACCACATAGCACTTATTCTAAAATTGACCACATAATTGGAAGTAAAACACTCCTCAACGAATGCAAAAGAATGGAAATCATAACAAACAGTCTCTCAGACCACAGTGCAATCAAATTAGAACTCAGGATTACGAAACTTACTCAAAACTGCACAACTACATGGAAACTGAACAACCTGCTCCTGAACGACTACTGGGTAAATAATGAAATGAAGGCAGAAATAAATAAGTTTTTGAAACCAATGAGAACAAAGACACAACATACCAGAATCTCTGGGACACAGCTAAAACAGTG", "values": [{"measurement": "Location", "setting": "[2]; TABLE 4", "result": "Chr 4"}, {"measurement": "No. SNP", "setting": "[2]; TABLE 4", "result": 1}, {"measurement": "Chr location", "setting": "[2]; TABLE 4", "result": 36939485}]}, {"molecule": "26 (nucleic acid, listed as Homo sapiens) AATTACAACAACCCTTAATATTTGTAAAGCGCTTGATAATTCAGGGAGGGCTTTTAAAAACTTCTATCCATCTCTTCCCCCCAGCAATCCTATGAGGTAGGCAGGGCTGGAATCATTTGCTGCATTTTATCGAATAGGAAGCCATGACTCGTAGAGGTCTGGTGACTTAACTGAGGTCACCCACTGAGGACGTGGCAGAGCTGGGTCCTGAATCTGTGGCCCTCAGGCTCTTTGCCTGGCCCTGCCTCACATAGACTACGCTGCCTCT", "values": [{"measurement": "Gene", "setting": "[2]; TABLE 4, gene at identified genomic insertion site", "result": "PPAC"}, {"measurement": "Location", "setting": "[2]; TABLE 4", "result": "Chr16"}, {"measurement": "No. SNP", "setting": "[2]; TABLE 4", "result": 0}]}, {"molecule": "MIRc (nucleic acid, listed as Homo sapiens) DNA: AATTACAACAACCCTTAATATTTGTAAAGCGCTTGATAATTCAGGGAGGGCTTTTAAAAACTTCTATCCATCTCTTCCCCCCAGCAATCCTATGAGGTAGGCAGGGCTGGAATCATTTGCTGCATTTTATCGAATAGGAAGCCATGACTCGTAGAGGTCTGGTGACTTAACTGAGGTCACCCACTGAGGACGTGGCAGAGCTGGGTCCTGAATCTGTGGCCCTCAGGCTCTTTGCCTGGCCCTGCCTCACATAGACTACGCTGCCTCT", "values": [{"measurement": "blast orientation", "setting": "[2]; [3]", "result": "Plus/Plus"}, {"measurement": "blast chr", "setting": "[2]; [3]", "result": "chr16 and chr8"}, {"measurement": "Transposon orientation", "setting": "[2]; [3]", "result": "direct"}, {"measurement": "Location relative to insertion", "setting": "[2]; [3]", "result": "left"}]}, {"molecule": "4 (nucleic acid, listed as Homo sapiens, misc_difference 287 a, c, t, g, unknown or other) TGATATGGTTTGGCTGTGTCCCCACCTAAATCTCATCTTGAATTGTAGTTCCCATAATCCCCATGTGTCATGGGAGGGACCCAGTGGGAGGTAATTTAATCCTGGGGGCAGTTACCCTCCTGCTATGTGTGTGTGTGTGTGTGTGTTCTCACGAGATCTGATGGTTTTATAAGGGGCTTTTCCCCCTTCGCTCGGCACTTCTCCTTCCTGCCGCCATGTGAAGAAGGACGTGTTTGCTTCCCCTTCCGCCATGATTGTAAGTTTCCTGAGGCCTCCCCAGCCATGCNGAACTGTGAGTCAATTAAACCTCTTTCCTTTATAAATTACCCAGTCTCGGGTGTGTCTTTATTAGCAGCGTGAGAACGGACTAATACA", "values": [{"measurement": "Gene", "setting": "[1]; gene at identified genomic insertion site, multiple myeloma", "result": "PI4K2B"}, {"measurement": "Location", "setting": "[1]; identified genomic insertion site, chromosome, multiple myeloma", "result": "Chr4"}, {"measurement": "No. SNP", "setting": "[1]; number of single nucleotide variants (SNVs or SNPs) identified, multiple myeloma", "result": 2}]}, {"molecule": "61 (nucleic acid, listed as Homo sapiens) TATTTTTAAGCAAAGACTTAGAGAGAGAGAGGAAGTTAGCTATGCACATTGTGGGTGCGGTGTGGTTAGGGTGGCCCTGAGATAGGGATATGCCTGGTGTGTTTACGGAACAGCTAAGAGGCCAGGGAACTAGAGGAAATTGAGTGGGAAGGAGAAGAGTAGGAGATTAGTTTTGAAAAGCAAATGGTTTGGGAATATGGATCATGTAAGAGCACATGAGATTTTATAAGGATTTCATTTTACTCAGGGTGAAATGAAGAAGCACTAAAA", "values": [{"measurement": "Location", "setting": "[2]; TABLE 4", "result": "Chr 14"}, {"measurement": "No. SNP", "setting": "[2]; TABLE 4", "result": 1}, {"measurement": "Chr location", "setting": "[2]; TABLE 4", "result": 21413450}]}, {"molecule": "MLT1J2 (nucleic acid, listed as Homo sapiens) DNA: TGTGTTAGTCAGGATAGGCTAACCTCTGTAACACACAACCCCAATTTTTCAGTGGCTCAGAACAATAGGAGTTTCTTTCTTACTCATGTAAAGTCCAGGTGTGGCAGAAACTTGCGGGGGAGAAAGTCTACTCCACAGCATCACTCAGGGACCCAGGCTCCTGCCTTACGGTGGTTCCGCCATTTTCCAGGGCCTCGGAGTCCTCCATCCCATCTCCTCCATTCAGCTGGTGGATGTGGGAGGAGAGCGTGTATGAAAGACCACACAGAAGCTTTTTTTGGGCCAGGCTTTGAGACGGCGCACATCAGTTTCGCTCTTGTTGCCCAGGCTGGAGTGCAATGGCGCAATCTCGGCTCACCGCAAAAGACACTGGGAAATTTGGTCTGGCCATGTGTCTAGGAAGCAGAGGAGATGGGGTTTCATAAACTCCTGAACTCTCTCTACCACG", "values": [{"measurement": "blast orientation", "setting": "[2]; [3]", "result": "Plus/Plus"}, {"measurement": "blast chr", "setting": "[2]; [3]", "result": "chr21"}, {"measurement": "Transposon orientation", "setting": "[2]; [3]", "result": "direct"}, {"measurement": "Distance from insertion", "setting": "[2]; TABLE 8, pancreatic cancer co-culture, distance between insertion and the transposon (0 if they overlap)", "result": 0}, {"measurement": "Location relative to insertion", "setting": "[2]; [3]", "result": "intersect"}]}, {"molecule": "67 (nucleic acid, listed as Homo sapiens, listed as DNA, chemistry not fully specified) CCTTAATAGTTAATCTCCTATTAATAAGTAAGTGATTCTTTAATTAAACTTTCCTCATTCAAATGGCCATATGCTTTCTGTCTCTCGACTAGATGCTGAGTGATATACCCCCCA", "values": [{"measurement": "Location", "setting": "[2]; TABLE 4", "result": "Chr 19"}, {"measurement": "No. SNP", "setting": "[2]; TABLE 4", "result": 1}, {"measurement": "Chr location", "setting": "[2]; TABLE 4", "result": 40372997}]}]}
